This is an account of results in PMC7943577.

The assay deals with BOM1093 of Borrelia miyamotoi strain MYK3, 6xHis-tagged on the C terminus, expressed in B. garinii HT59G (Borrelia miyamotoi strain MYK3). Description: ELISA; Maxisorp wells coated with 0.5 µg/well sonicated B. garinii HT59G/pBOM1093 in TBS; recombinant human Vn 6.25-400 nM, 2 h at room temperature; detected with mouse anti-human Vn IgG; values of the mock strain (pBSV2) subtracted; KD fitted in Prism.

Regarding “recombinant human vitronectin (from UniProt P04004 20-478) (natural protein)”, the Kd came out at 10.8 nM.

In general, Kd refers to a measure of binding affinity in units of concentration.
